± gives the uncertainty stated by the source.

The data set is described as follows: self-splicing fitness, log relative to wild type (ln ratio); higher = more splicing; Tetrahymena group I intron in knt gene, E. coli kanamycin selection, DiMSum; sequences stand for … in CUCUCU…GGAGGGAAAAGUUAUCAGGCAUGCACCUGGUAGCUAGUCUUUAAACCAAUAGAUUGCAUCGGUUUAAAAGGCAAGACCGUCAAAUUGCGGGAAAGGGGUCAACAGCCGUUCAGUACCAAGUCUCAGGGGAAACUUUGAGAUGGCCUUGCAAAGGGUAUGGUAAUAAGCUGACGGACAUGGUCCUAACCACGCAGCCAAGUCCUAAGUCAACAGAUCUUCUGUUGAUAUGGAUGCAGUUCACAGACUAAAUGUCGGUCGGGGAAGAUGUAUUCUUCUCAUAAGAUAUAGUCGGACCUCUCCUUAAUGGGAGCUAGCGGAUGAAGUGAUGCAACACUGGAGCCGCUGGGAACUAAUUUGUAUGCGAAAGUAUAUUGAUUAGUUUUGGAGUACUCGUGGUCG
An outline of the steps: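 A randomised library covering all eight P1ex-region intron nucleotides was built with the intron in the knt kanamycin-resistance gene on pET-22b(+) and held in E. coli BL21(DE3). Cells were grown overnight at 37°C or 30°C on LB agar, with or without 25 μg/mL kanamycin, plus 100 μg/mL carbenicillin, 50 μM IPTG and 0.2% rhamnose, and pooled colonies were amplicon-sequenced on an Illumina HiSeq 2500. DiMSum fitness is the error-weighted combination of wild-type-normalised replicate fold changes, kanamycin versus none.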

Consider GAAAAGCAAUAUUACGUUCG, for which the “self-splicing fitness (ln)” value is -1.01 ± 0.064 (30 °C) and -0.233 ± 0.08 (37 °C).
As to ACUUAGCAAUAUUACGUGGG, the “self-splicing fitness (ln)” value by setting is: (30 °C) -2.95 ± 0.14; (37 °C) -1.14 ± 0.12.
The matching figures for UCAAAGCAAUAUUACGAAAG: -3.84 ± 0.31 and -1.43 ± 0.18.
On to ACGAAGCAAUAUUACGUUCA, for which the “self-splicing fitness (ln)” value by setting is: (30 °C) -1.14 ± 0.05; (37 °C) -0.417 ± 0.057.
On to GAGGAGCAAUAUUACGAAAU, for which the “self-splicing fitness (ln)” value was -3 ± 0.4 (30 °C) and -1.14 ± 0.23 (37 °C).
The corresponding values for ACUUAGCAAUAUUACGUGAG are -0.348 ± 0.067 and -0.0975 ± 0.087.
Turning to AACCAGCAAUAUUACGGAGG, the “self-splicing fitness (ln)” value was -1.36 ± 0.076 (30 °C) and -0.444 ± 0.12 (37 °C).
The matching figures for AUGCAGCAAUAUUACGAGUU: -3.2 ± 0.11 and -1.39 ± 0.1.
The corresponding values for AUAAAGCAAUAUUACGACAC are -0.305 ± 0.11 and -0.252 ± 0.13.
The corresponding values for ACCCAGCAAUAUUACGAGCA are -0.745 ± 0.08 and -1.31 ± 0.088.
Take UGCAAGCAAUAUUACGACAG: the “self-splicing fitness (ln)” value reads like this: (30 °C) -0.739 ± 0.066; (37 °C) -0.13 ± 0.092.
For UUUAAGCAAUAUUACGUCUC, the “self-splicing fitness (ln)” value was -1.11 ± 0.29 (30 °C) and -1.83 ± 0.39 (37 °C).
The corresponding values for GCACAGCAAUAUUACGUGCG are -2.65 ± 0.066 and -1.12 ± 0.066.
Consider UGUCAGCAAUAUUACGAUGA, for which the “self-splicing fitness (ln)” value (30 °C) is 0.232 ± 0.075 and the “self-splicing fitness (ln)” value (37 °C) is 0.333 ± 0.09.
The corresponding values for CCCAAGCAAUAUUACGAUGA are -1.7 ± 0.19 and -2.69 ± 0.24.
The matching figures for CACAAGCAAUAUUACGCGCU: -4.44 ± 0.27 and -2.33 ± 0.18.
For UCCGAGCAAUAUUACGAGCG, the “self-splicing fitness (ln)” value is -3.16 ± 0.18 (30 °C) and -2.47 ± 0.24 (37 °C).
Take CUUCAGCAAUAUUACGCGAG: the “self-splicing fitness (ln)” value was -3.15 ± 0.2 (30 °C) and -1.91 ± 0.2 (37 °C).
CCAGAGCAAUAUUACGGAUC: for the setting “30 °C”, the “self-splicing fitness (ln)” value was -1.77 ± 0.32.
Turning to GGGCAGCAAUAUUACGCAUC, the “self-splicing fitness (ln)” value reads like this: (30 °C) -2.25 ± 0.41; (37 °C) -0.733 ± 0.2.
The corresponding values for UUCUAGCAAUAUUACGUACG are -1.82 ± 0.14 and -0.281 ± 0.14.
In the case of AGCUAGCAAUAUUACGUUAG, the “self-splicing fitness (ln)” value reads like this: (30 °C) -3.14 ± 0.22; (37 °C) -2.56 ± 0.22.
The corresponding values for CACUAGCAAUAUUACGUGGC are -3.89 ± 0.23 and -3.28 ± 0.2.
The matching figures for UACCAGCAAUAUUACGGGAC: -3.46 ± 0.19 and -2.31 ± 0.2.
The corresponding values for UGUAAGCAAUAUUACGAAAA are -1.7 ± 0.15 and -1.15 ± 0.16.
For the sequence AGUCAGCAAUAUUACGAUCG, the “self-splicing fitness (ln)” value (30 °C) is -0.601 ± 0.091 and the “self-splicing fitness (ln)” value (37 °C) turned out to be 0.358 ± 0.14.
The matching figures for CCUAAGCAAUAUUACGGCCA: -2.55 ± 0.22 and -2.58 ± 0.26.
The matching figures for CGUGAGCAAUAUUACGUGGA: -3.06 ± 0.15 and -2.11 ± 0.14.
The matching figures for CAGUAGCAAUAUUACGGAAG: -1.9 ± 0.15 and -0.317 ± 0.14.
Consider AGACAGCAAUAUUACGCAAG, for which the “self-splicing fitness (ln)” value runs as follows: (30 °C) -2.89 ± 0.11; (37 °C) -0.553 ± 0.1.
The matching figures for GUACAGCAAUAUUACGGUCC: -0.203 ± 0.11 and -0.766 ± 0.13.
The corresponding values for UCGUAGCAAUAUUACGAAAU are -3.8 ± 0.33 and -1.65 ± 0.26.
Consider CGGUAGCAAUAUUACGGCGA, for which the “self-splicing fitness (ln)” value runs as follows: (30 °C) -2.69 ± 0.27; (37 °C) -2.13 ± 0.26.
Regarding CUAUAGCAAUAUUACGGCGG, the “self-splicing fitness (ln)” value was -0.513 ± 0.12 (30 °C) and -0.641 ± 0.14 (37 °C).
The corresponding values for UCUCAGCAAUAUUACGUUCG are -3.46 ± 0.2 and -2.28 ± 0.25.
The corresponding values for UUAGAGCAAUAUUACGCUAA are -1.93 ± 0.24 and -0.588 ± 0.36.
The matching figures for CAACAGCAAUAUUACGCGCC: -1.54 ± 0.073 and -1.43 ± 0.11.

The values above are taken from the supplement of paper PMC7877785.
